# Experimental data reported in patent US20040137588A1 (published 2004).
# B1: purified refolded dimeric VEGF-B167 (ligand, human, UniProt P49765-2 22-188, looked up, not shown: small tags and cut ends)
# chain: PVSQPDAPGHQRKVVSWIDVYTRATCQPREVVVPLTVELMGTVAKQLVPSCVTVQRCGGCCPDDGLECVPTGQHQVRMQILMIRYPSSQLGEMSLEEHSQCECRPKKKDSAVKPDSPRPLCPRCTQHHQRPDPRTCRCRCRRRSFLRCQGRGLELNPDTCRCRKLRR
# notes: mature
# Columns and labels:
# [1] = molecular target: chimeric receptor consisting of the extracellular and membrane domain of VEGFR1 fused to the cytoplasmic domain of gp130, on 293A12 cells (UniProt P17948); assay: cell-based or functional assay
# chimeric receptor consisting of the extracellular and membrane domain of VEGFR1 fused to the cytoplasmic domain of gp130, on 293A12 cells, sequence (P17948 other isoform, or with tags, fused parts or gaps mutant limits assumed): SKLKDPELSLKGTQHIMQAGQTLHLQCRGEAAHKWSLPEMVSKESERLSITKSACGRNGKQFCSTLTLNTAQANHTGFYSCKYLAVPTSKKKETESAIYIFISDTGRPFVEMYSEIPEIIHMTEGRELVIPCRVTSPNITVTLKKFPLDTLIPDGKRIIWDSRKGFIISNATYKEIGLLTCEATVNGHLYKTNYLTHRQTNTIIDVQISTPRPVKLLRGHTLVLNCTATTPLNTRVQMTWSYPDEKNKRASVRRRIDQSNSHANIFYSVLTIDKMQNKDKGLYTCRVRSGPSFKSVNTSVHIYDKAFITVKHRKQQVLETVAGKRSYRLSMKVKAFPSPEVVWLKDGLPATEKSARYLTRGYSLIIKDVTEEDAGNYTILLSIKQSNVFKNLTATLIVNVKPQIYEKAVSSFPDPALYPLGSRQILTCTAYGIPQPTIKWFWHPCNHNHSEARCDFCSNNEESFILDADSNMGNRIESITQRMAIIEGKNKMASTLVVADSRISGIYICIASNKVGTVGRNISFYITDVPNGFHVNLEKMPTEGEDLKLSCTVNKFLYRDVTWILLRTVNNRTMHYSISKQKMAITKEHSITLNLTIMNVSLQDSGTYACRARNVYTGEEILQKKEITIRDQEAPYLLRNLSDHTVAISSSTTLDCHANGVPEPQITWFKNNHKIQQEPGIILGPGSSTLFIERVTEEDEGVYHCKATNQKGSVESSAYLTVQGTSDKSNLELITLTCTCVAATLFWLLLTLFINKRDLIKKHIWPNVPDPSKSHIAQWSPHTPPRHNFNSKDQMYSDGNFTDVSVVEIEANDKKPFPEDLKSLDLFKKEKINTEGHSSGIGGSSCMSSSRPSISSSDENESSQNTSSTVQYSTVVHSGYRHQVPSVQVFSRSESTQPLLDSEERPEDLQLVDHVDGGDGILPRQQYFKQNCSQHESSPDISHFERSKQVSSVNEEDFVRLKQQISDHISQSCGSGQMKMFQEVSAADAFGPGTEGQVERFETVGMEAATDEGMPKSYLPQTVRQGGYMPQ
# [2] = molecular target: T1, VEGF-R2/Fc chimeric protein (R&D systems) (human, UniProt P35968 20-764); assay: SPR (Biacore 2000), VEGF-B167 immobilised, receptor injected
# T1 construct: Bought from R&D systems; not shown: human immunoglobulin Fc domain
# T1 sequence (P35968 20-764 limits assumed, change not shown): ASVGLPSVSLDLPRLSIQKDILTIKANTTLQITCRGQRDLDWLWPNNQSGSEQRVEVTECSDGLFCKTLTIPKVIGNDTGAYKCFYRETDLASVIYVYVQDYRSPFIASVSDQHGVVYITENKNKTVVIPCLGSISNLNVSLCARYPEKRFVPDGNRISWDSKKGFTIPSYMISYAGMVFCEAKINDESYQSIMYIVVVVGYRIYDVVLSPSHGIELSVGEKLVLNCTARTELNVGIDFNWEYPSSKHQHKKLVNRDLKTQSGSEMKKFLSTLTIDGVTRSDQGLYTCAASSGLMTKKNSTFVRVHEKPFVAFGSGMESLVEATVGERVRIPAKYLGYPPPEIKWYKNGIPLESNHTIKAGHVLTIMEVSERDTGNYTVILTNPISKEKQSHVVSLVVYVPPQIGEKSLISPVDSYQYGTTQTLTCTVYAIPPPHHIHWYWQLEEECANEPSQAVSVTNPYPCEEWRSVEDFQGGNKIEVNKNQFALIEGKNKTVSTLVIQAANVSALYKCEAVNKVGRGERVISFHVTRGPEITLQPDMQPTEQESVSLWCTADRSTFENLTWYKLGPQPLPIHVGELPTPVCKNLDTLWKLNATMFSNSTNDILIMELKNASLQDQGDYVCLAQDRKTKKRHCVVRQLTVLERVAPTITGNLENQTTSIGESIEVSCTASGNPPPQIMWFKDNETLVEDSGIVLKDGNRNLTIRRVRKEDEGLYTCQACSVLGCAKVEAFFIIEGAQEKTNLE
# Protocol: For control purposes binding of the receptors to VEGF-A₁₆₅ was also monitored. Both VEGF-B₁₆₇ and VEGF-A₁₆₅ were individually immobilised to a sensorchip using NHS/EDC chemistry according to the manufacturer's instructions. Briefly, 35 μl of NHS and EDC was injected onto the sensorchip at a flow rate of 5 μl/min to activate the sensor surface and enable covalent coupling of either VEGF-A₁₆₅ or VEGF-B₁₆₇. […] Post coupling, diaminoethane (50 mM, pH 9.0) was used to block any unbound activated sites on the sensor surface. Concentrated dimeric VEGF-B₁₆₇ (200 μg/ml) was diluted (1:10) in 20 mM sodium acetate and immobilized onto a separate channel on the sensorchip. Post coupling, diaminoethane (50 mM, pH 9.0) was used to block any unbound activated sites on the sensor surface.
# At the end of each run, the surface of the sensorchip was regenerated using 2 cycles of phosphoric acid (0.1 M, 30 μl) at a flow of 50 μl/min. […] Both were diluted into 0.1% w/v BSA in PBS as a stock solution (50 μg/ml, storage −20° C.).
# [3] = molecular target: T2, VEGF-R1/Fc chimeric protein (R&D systems) (human, UniProt P17948 27-687, limits assumed); assay: competition ELISA on captured VEGF-R1/Fc (100 ng/ml); competitor VEGF-A165 at 10 ng/ml, detected with biotinylated anti-VEGF-A165
# T2 construct: Bought from R&D systems; also called VEGF-R1/Flt-1; soluble VEGFR1-Ig chimeric protein; not shown: human immunoglobulin Fc domain
# T2 sequence (P17948 27-687 limits assumed, change not shown): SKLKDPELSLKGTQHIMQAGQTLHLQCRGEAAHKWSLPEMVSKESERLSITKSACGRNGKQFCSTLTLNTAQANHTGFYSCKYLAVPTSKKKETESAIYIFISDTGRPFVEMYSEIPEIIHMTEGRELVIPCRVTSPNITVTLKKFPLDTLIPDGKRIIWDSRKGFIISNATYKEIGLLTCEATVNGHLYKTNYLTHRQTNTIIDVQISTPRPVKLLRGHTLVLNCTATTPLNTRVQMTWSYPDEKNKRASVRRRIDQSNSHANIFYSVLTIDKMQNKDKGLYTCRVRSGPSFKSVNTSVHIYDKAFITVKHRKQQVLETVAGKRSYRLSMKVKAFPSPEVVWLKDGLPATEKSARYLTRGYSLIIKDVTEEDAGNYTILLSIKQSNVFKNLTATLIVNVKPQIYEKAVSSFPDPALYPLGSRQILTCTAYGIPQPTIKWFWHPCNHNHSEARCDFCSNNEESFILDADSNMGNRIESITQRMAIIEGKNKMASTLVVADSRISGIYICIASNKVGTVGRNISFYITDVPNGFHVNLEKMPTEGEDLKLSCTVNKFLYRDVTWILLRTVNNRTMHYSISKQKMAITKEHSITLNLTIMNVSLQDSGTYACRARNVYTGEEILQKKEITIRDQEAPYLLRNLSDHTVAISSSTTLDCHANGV
# Protocol: 3. […] Plates were incubated for 90 min at room temperature.
# 5. VEGF-A₁₆₅ was added (indicated concentration in Buffer 20) and incubated at room temp for 1 hr. In competition experiments, VEGF-B₁₆₇ was added 30 min prior to the addition of VEGF-A₁₆₅. A range of VEGF-B₁₆₇ concentrations were used to compete with VEGF-A₁₆₅ at a final concentration of 10 ng/ml.
# 7. Biotinylated anti-VEGF-A₁₆₅ (10 ng/ml in Buffer 20, 100 μl) was added and incubated for 1 hr.
Molecule,ED50 of luciferase production in 293A12 cells with the chimeric receptor [1] [µg/mL],binding result [2],IC50 [3] [µg/mL]
"VEGF-A (commercially available recombinant protein, Example 28) (from UniProt P15692 27-191) (ligand)",0.01 to 0.05,–,–
B1,–,no binding,~0.02
